Assay results: article PMC11694665, “Open and closed structures of L-arginine oxidase by cryo-electron microscopy and X-ray crystallography” (Journal of Biochemistry, 2024)

Columns and labels:
[1] = molecular target: L-arginine oxidase from Pseudomonas sp. TPU 7192 (Pseudomonas sp. TPU 7192); assay: cryo-EM structure; single-particle analysis, 2.5 mg/ml protein in 20 mM HEPES (pH 8.0), 50 mM NaCl, with bound FAD; D4 symmetry; octamer
[2] = molecular target: L-arginine oxidase from Pseudomonas sp. TPU 7192 (Pseudomonas sp. TPU 7192); assay: mass photometry; 0.1 mg/ml in SEC buffer (20 mM HEPES pH 8.0, 50 mM NaCl), on a glass coverslip, 60 s, three repeats; molecular weight in solution
[3] = molecular target: L-arginine oxidase from Pseudomonas sp. TPU 7192 (Pseudomonas sp. TPU 7192); assay: crystal structure; crystals grown at 20°C from 10 mg/ml protein, 20% w/v PEG 3350, 0.2 M potassium citrate tribasic (pH 8.3); four molecules in the asymmetric unit, octamer made by a symmetry mate
N=C(N)NCCC[C@H](N)C(=O)O = system: T1, N=C(N)NCCC[C@H](N)C(=O)O; assay: peroxidase-coupled colourimetric assay (4-aminoantipyrine/TOOS), non-linear regression; format: biochemical, Pseudomonas putida; conditions: 100 mM Tris-HCl pH 7.0, 37 °C, substrate 0-2.5 mM
T1 construct: full length, recombinant in E. coli BL21(DE3) from pET-15b; homooctamer (D4), one FAD per monomer; 4632 residues modelled in octamer (579 per chain)
Excerpt: (§1) peroxidase-coupled colourimetric assay (4-aminoantipyrine/TOOS), non-linear regression on PT-AROD (L-arginine oxidase from Pseudomonas sp. TPU 7192)

NCCCC[C@H](N)C(=O)O = system: T2, NCCCC[C@H](N)C(=O)O; assay: as above; format: biochemical, Pseudomonas putida; conditions: 100 mM Tris-HCl pH 7.0, 37 °C, substrate 0-10 mM
T2 construct: full length, recombinant in E. coli BL21(DE3) from pET-15b; homooctamer (D4), one FAD per monomer; 4632 residues modelled in octamer (579 per chain)
Excerpt: as §1

[4] = molecular target: T3, PT-AROD (L-arginine oxidase from Pseudomonas sp. TPU 7192) (Pseudomonas putida, UniProt A0A177SH44); assay: cryo-EM ([…] Å) and X-ray crystallography ([…] Å); format: binding; conditions: one FAD per monomer; copurified, 0.2 μM FAD in purification buffers
T3 construct: gene AYO28_23740; full length, recombinant in E. coli BL21(DE3) from pET-15b; homooctamer (D4), one FAD per monomer; 4632 residues modelled in octamer (579 per chain)
T3 sequence (A0A177SH44 1-589): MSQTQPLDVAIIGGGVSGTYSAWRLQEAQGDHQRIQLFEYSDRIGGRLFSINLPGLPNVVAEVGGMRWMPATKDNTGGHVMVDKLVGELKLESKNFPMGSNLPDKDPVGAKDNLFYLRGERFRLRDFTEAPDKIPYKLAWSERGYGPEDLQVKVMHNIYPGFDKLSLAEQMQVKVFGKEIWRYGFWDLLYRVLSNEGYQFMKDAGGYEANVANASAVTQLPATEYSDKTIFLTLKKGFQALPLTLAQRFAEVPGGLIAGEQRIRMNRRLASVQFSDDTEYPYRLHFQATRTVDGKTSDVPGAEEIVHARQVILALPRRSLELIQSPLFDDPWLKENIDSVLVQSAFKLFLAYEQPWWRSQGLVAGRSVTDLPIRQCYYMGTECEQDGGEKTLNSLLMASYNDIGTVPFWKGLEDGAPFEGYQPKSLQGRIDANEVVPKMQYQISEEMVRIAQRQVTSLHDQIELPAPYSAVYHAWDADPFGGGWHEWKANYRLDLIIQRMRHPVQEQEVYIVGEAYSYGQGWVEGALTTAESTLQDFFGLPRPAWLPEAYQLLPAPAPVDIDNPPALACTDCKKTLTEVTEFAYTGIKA

[5] = substrate: N=C(N)NCCC[C@H](N)C(=O)O; assay: peroxidase-coupled colourimetric assay (4-aminoantipyrine/TOOS), non-linear regression; format: biochemical, Pseudomonas putida; conditions: 100 mM Tris-HCl pH 7.0, 37 °C, substrate 0-2.5 mM
Excerpt: as §1

[6] = substrate: NCCCC[C@H](N)C(=O)O; assay: as above; format: biochemical, Pseudomonas putida; conditions: 100 mM Tris-HCl pH 7.0, 37 °C, substrate 0-10 mM
Excerpt: as §1

## L-arginine oxidase from Pseudomonas sp. TPU 7192 (enzyme)
[1]
  stoichiometry N: 8
[2]
  stoichiometry N: 8
[3]
  stoichiometry N: 8

## PT-AROD (L-arginine oxidase from Pseudomonas sp. TPU 7192) (Pseudomonas putida; E486A)
N=C(N)NCCC[C@H](N)C(=O)O
  Km: 190 µM
  kcat: 3.5 s⁻¹
  kcat/Km: 18000 M⁻¹ s⁻¹
NCCCC[C@H](N)C(=O)O
  Km: 1200 µM
  kcat: 1.1 s⁻¹
  kcat/Km: 920 M⁻¹ s⁻¹

## Cc1cc2nc3c(=O)[nH]c(=O)nc-3n(C[C@H](O)[C@H](O)[C@H](O)COP(=O)(O)OP(=O)(O)OC[C@H]3O[C@@H](n4cnc5c(N)ncnc54)[C@H](O)[C@@H]3O)c2cc1C [FAD]
[4]
  cryo-EM (2.3 Å) and X-ray crystallography (3.4 Å): We obtained a cryo-EM map of PT-AROD in complex with FAD

## PT-AROD (L-arginine oxidase from Pseudomonas sp. TPU 7192) (Pseudomonas putida; Q343E)
N=C(N)NCCC[C@H](N)C(=O)O
  Km: 1700 µM
  kcat: 10.4 s⁻¹
  kcat/Km: 6100 M⁻¹ s⁻¹
NCCCC[C@H](N)C(=O)O
  Km: 6900 µM
  kcat: 0.5 s⁻¹
  kcat/Km: 72 M⁻¹ s⁻¹

B1: PT-AROD (L-arginine oxidase from Pseudomonas sp. TPU 7192) (Pseudomonas putida) (protein)
chain: MSQTQPLDVAIIGGGVSGTYSAWRLQEAQGDHQRIQLFEYSDRIGGRLFSINLPGLPNVVAEVGGMRWMPATKDNTGGHVMVDKLVGELKLESKNFPMGSNLPDKDPVGAKDNLFYLRGERFRLRDFTEAPDKIPYKLAWSERGYGPEDLQVKVMHNIYPGFDKLSLAEQMQVKVFGKEIWRYGFWDLLYRVLSNEGYQFMKDAGGYEANVANASAVTQLPATEYSDKTIFLTLKKGFQALPLTLAQRFAEVPGGLIAGEQRIRMNRRLASVQFSDDTEYPYRLHFQATRTVDGKTSDVPGAEEIVHARQVILALPRRSLELIQSPLFDDPWLKENIDSVLVQSAFKLFLAYEQPWWRSQGLVAGRSVTDLPIRQCYYMGTECEQDGGEKTLNSLLMASYNDIGTVPFWKGLEDGAPFEGYQPKSLQGRIDANEVVPKMQYQISEEMVRIAQRQVTSLHDQIELPAPYSAVYHAWDADPFGGGWHEWKANYRLDLIIQRMRHPVQEQEVYIVGEAYSYGQGWVEGALTTAESTLQDFFGLPRPAWLPEAYQLLPAPAPVDIDNPPALACTDCKKTLTEVTEFAYTGIKA
notes: full length, recombinant in E. coli BL21(DE3) from pET-15b; homooctamer (D4), one FAD per monomer; 4632 residues modelled in octamer (579 per chain)
[5]
  Km: 480 µM
  kcat: 6.2 s⁻¹
  kcat/Km: 13000 M⁻¹ s⁻¹
[6]
  Km: 20000 µM
  kcat: 2.7 s⁻¹
  kcat/Km: 140 M⁻¹ s⁻¹
